Drawing on patent publication US20040059519A1, this text covers MIF of Fm for 1 substance.

Assay [1] deals with Human chorionic gonadotropin (human) (UniProt P01215). As to the kind of experiment: bead sandwich, flow cytometry; capture B2 beads, hCG 20.0 ug/mL.
The target in assay [2] is Alpha fetoprotein (UniProt P02771). Description: MAB602 capture beads, flow cytometry; AFP 10.0 ng/mL, anti-AFP probe.
The target in assay [3] is Human chorionic gonadotropin (human) (UniProt P01215). Description: bead sandwich, flow cytometry; capture B1 (AB633) beads, hCG 20.0 ug/mL. For orientation: A flow cytometer gives signals particle by particle.
For assay [4], the target named is Alpha fetoprotein (UniProt P02771). Description: MAB602 capture beads, flow cytometry; AFP 1.0 ng/mL, anti-AFP probe.
Assay [5] has the same target. As to the kind of experiment: MAB602 capture beads, flow cytometry; AFP 0.1 ng/mL, anti-AFP probe.
For assay [6] the target is unchanged. As to the kind of experiment: MAB602 capture beads, flow cytometry; AFP 1000.0 ng/mL, anti-AFP probe.
For assay [7], the target named is Human chorionic gonadotropin (human) (UniProt P01215). Description: bead sandwich, flow cytometry; capture B1 (AB633) beads, no hCG (background).
Assay [8] has as its target Alpha fetoprotein (UniProt P02771). Description: MAB602 capture beads, flow cytometry; AFP 0.0 ng/mL, anti-AFP probe.
For assay [9] the target is unchanged. As to the kind of experiment: MAB602 capture beads, flow cytometry; AFP 100.0 ng/mL, anti-AFP probe.
Assay [10] has as its target Human chorionic gonadotropin (human) (UniProt P01215). Description: bead sandwich, flow cytometry; capture B2 beads, no hCG (background).

UniProt P01215, sequence (P01215 25-116, chain 1 of 2, other chains not shown): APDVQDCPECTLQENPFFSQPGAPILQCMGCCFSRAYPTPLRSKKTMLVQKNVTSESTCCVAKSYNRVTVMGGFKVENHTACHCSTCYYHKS
UniProt P02771, sequence (P02771 19-609 limits assumed): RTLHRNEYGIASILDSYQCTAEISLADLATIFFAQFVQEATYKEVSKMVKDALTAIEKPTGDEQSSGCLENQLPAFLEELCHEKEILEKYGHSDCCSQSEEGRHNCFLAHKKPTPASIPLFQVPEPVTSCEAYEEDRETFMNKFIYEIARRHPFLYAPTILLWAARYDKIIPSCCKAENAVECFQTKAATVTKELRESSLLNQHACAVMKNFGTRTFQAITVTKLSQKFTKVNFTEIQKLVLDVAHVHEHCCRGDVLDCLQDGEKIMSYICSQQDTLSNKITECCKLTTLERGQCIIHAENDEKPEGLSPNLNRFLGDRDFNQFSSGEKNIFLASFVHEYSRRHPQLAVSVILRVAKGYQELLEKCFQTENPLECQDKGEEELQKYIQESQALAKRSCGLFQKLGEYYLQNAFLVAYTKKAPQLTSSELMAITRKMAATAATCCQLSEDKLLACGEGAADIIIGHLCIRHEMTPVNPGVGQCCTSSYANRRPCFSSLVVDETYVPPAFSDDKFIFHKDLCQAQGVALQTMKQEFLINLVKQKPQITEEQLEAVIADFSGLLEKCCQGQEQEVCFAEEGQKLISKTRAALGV

Consider MAB602 monoclonal anti-hCG antibody, for which the MIF of Fm worked out at 886 in assay [1]; 48 in the assay with Alpha fetoprotein [2]; 107 in assay [3]; 48 in the assay with Alpha fetoprotein [4]; 48 in the assay with Alpha fetoprotein [5]; 52 with Alpha fetoprotein [6]. For the same substance, the MIF of Fm in assay [7] was 33; with Alpha fetoprotein [8], 48; in the assay with Alpha fetoprotein [9], 48; in assay [10], 56.
